Measured values from US20140056920A1 (Sanofi, published 2014).

Molecular target: T1, mouse IL-4Rα (mouse, UniProt P16382 26-233, limits assumed)
T1 construct: also called mouse IL-4Rα protein; mIL-4Rα
T1 sequence (looked up): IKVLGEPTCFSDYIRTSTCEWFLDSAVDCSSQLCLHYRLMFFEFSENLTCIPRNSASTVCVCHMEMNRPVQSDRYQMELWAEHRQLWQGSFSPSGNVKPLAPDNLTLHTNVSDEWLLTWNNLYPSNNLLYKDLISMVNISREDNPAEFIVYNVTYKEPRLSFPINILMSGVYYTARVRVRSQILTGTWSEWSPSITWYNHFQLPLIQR
Assay: not described (stated in Materials and Methods of Example 4)

B1: mAb1 (human anti-IL-4R antibody H1H098-b) (antibody, V domains shown)
VH: EVQLVESGGGLEQPGGSLRLSCAGSGFTFRDYAMTWVRQAPGKGLEWVSSISGSGGNTYYADSVKGRFTISRDNSKNTLYLQMNSLRAEDTAVYYCAKDRLSITIRPRYYGLDVWGQGTTVTVS
VL: DIVMTQSPLSLPVTPGEPASISCRSSQSLLYSIGYNYLDWYLQKSGQSPQLLIYLGSNRASGVPDRFSGSGSGTDFTLKISRVEAEDVGFYYCMQALQTPYTFGQGTKLEIK
notes: also called anti-IL-4R antibody mAb1; REGN668/SAR231893
binding result: no binding
